Measurements from the supplement of paper PMC11246515.
± gives the standard deviation of the averaged measurements.

Assay: total protein half-life in vivo (active degradation + dilution); higher = more stable protein
[1] = E. coli NCM3722 delta-clpP delta-lon delta-hslV, growth: N-lim chemostat, doubling time 6 h
[2] = E. coli NCM3722 delta-clpP, growth: N-lim chemostat, doubling time 6 h
[3] = E. coli NCM3722 delta-hslV, growth: N-lim chemostat, doubling time 6 h
[4] = E. coli NCM3722 delta-smpB, growth: N-lim chemostat, doubling time 6 h
[5] = wild type E. coli NCM3722, growth: C-lim chemostat, doubling time 3 h
[6] = wild type E. coli NCM3722, growth: C-lim chemostat, doubling time 12 h
[7] = wild type E. coli NCM3722, growth: N-lim chemostat, doubling time 6 h
[8] = wild type E. coli NCM3722, growth: N-lim chemostat, doubling time 12 h
[9] = wild type E. coli NCM3722, growth: P-lim chemostat, doubling time 6 h
[10] = wild type E. coli NCM3722, growth: C-lim chemostat, doubling time 6 h
[11] = E. coli NCM3722 delta-lon, growth: N-lim chemostat, doubling time 6 h
[12] = wild type E. coli NCM3722, growth: P-lim chemostat, doubling time 12 h

Sequence | total protein half-life in vivo [1] | total protein half-life in vivo [2] | total protein half-life in vivo [3] | total protein half-life in vivo [4] | total protein half-life in vivo [5] | total protein half-life in vivo [6] | total protein half-life in vivo [7] | total protein half-life in vivo [8] | total protein half-life in vivo [9] | total protein half-life in vivo [10] | total protein half-life in vivo [11] | total protein half-life in vivo [12]
MTNYRVESSSGRAARKMRLALMGPAFIAAIGYIDPGNFATNIQAGASFGYQLLWVVVWANLMAMLIQILSAKLGIATGKNLAEQIRDHYPRPVVWFYWVQAEIIAMATDLAEFIGAAIGFKLILGVSLLQGAVLTGIATFLILMLQRRGQKPLEKVIGGLLLFVAAAYIVELIFSQPNLAQLGKGMVIPSLPTSEAVFLAAGVLGATIMPHVIYLHSSLTQHLHGGSRQQRYSATKWDVAIAMTIAGFVNLAMMATAAAAFHFSGHTGVADLDEAYLTLQPLLSHAAATVFGLSLVAAGLSSTVVGTLAGQVVMQGFIRFHIPLWVRRTVTMLPSFIVILMGLDPTRILVMSQVLLSFGIALALVPLLIFTSDSKLMGDLVNSKRVKQTGWVIVVLVVALNIWLLVGTALGL [P0A769] | 2.46 h | 3.02 h | 2.87 h | 2.15 ± 0.48 h | 1.29 h | 3.66 h | 2.23 ± 1.2 h | 3.65 ± 1.2 h | 2.19 h | – | – | –
MKRKRLFLLASLLPMFALAGNKWNTTLPGGNMQFQGVIIAETCRIEAGDKQMTVNMGQISSNRFHAVGEDSAPVPFVIHLRECSTVVSERVGVAFHGVADGKNPDVLSVGEGPGIATNIGVALFDDEGNLVPINRPPANWKRLYSGSTSLHFIAKYRATGRRVTGGIANAQAWFSLTYQ | – | – | – | 5.7 ± 0.54 h | 2.67 h | – | – | – | – | 6.06 h | – | –
MRSIARRTAVGAALLLVMPVAVWISGWRWQPGEQSWLLKAAFWVTETVTQPWGVITHLILFGWFLWCLRFRIKAAFVLFAILAAAILVGQGVKSWIKDKVQEPRPFVIWLEKTHHIPVDEFYTLKRAERGNLVKEQLAEEKNIPQYLRSHWQKETGFAFPSGHTMFAASWALLAVGLLWPRRRTLTIAILLVWATGVMGSRLLLGMHWPRDLVVATLISWALVAVATWLAQRICGPLTPPAEENREIAQREQES [P0A924] | 6.18 ± 0.47 h | 7.12 ± 0.17 h | 7.17 h | 5.95 ± 0.56 h | – | 14.4 ± 1.7 h | 6.36 ± 0.65 h | 11.9 ± 0.65 h | 6.14 ± 0.54 h | 6.009 ± 0.045 h | 5.52 ± 0.8 h | 10.7 ± 2 h
MKHELSSMKAFVILAESSSFNNAAKLLNITQPALTRRIKKMEEDLHVQLFERTTRKVTLTKAGKRLLPEARELIKKFDETLFNIRDMNAYHRGMVTLACIPTAVFYFLPLAIGKFNELYPNIKVRILEQGTNNCMESVLCNESDFGINMNNVTNSSIDFTPLVNEPFVLACRRDHPLAKKQLVEWQELVGYKMIGVRSSSGNRLLIEQQLADKPWKLDWFYEVRHLSTSLGLVEAGLGISALPGLAMPHAPYSSIIGIPLVEPVIRRTLGIIRRKDAVLSPAAERFFALLINLWTDDKDNLWTNIVERQRHALQEIG | 3.61 h | – | – | – | – | – | – | – | – | – | – | –
MYRIGELAKMAEVTPDTIRYYEKQQMMEHEVRTEGGFRLYTESDLQRLKFIRHARQLGFSLESIRELLSIRIDPEHHTCQESKGIVQERLQEVEARIAELQSMQRSLQRLNDACCGTAHSSVYCSILEALEQGASGVKSGC [P0ACS5] | 4.46 ± 0.81 h | – | – | 0.555 ± 0.043 h | – | 1 h | 0.748 ± 0.26 h | – | – | 0.866 h | 2.16 h | –
MATLIRLFIHPVKSMRGIGLTHALADVSGLAFDRIFMITEPDGTFITARQFPQMVRFTPSPVHDGLHLTAPDGSSAYVRFADFATQDAPTEVWGTHFTARIAPDAINKWLSGFFSREVQLRWVGPQMTRRVKRHNTVPLSFADGYPYLLANEASLRDLQQRCPASVKMEQFRPNLVVSGASAWEEDRWKVIRIGDVVFDVVKPCSRCIFTTVSPEKGQKHPAGEPLKTLQSFRTAQDNGDVDFGQNLIARNSGVIRVGDEVEILATAPAKIYGAAAADDTANITQQPDANVDIDWQGQAFRGNNQQVLLEQLENQGIRIPYSCRAGICGSCRVQLLEGEVTPLKKSAMGDDGTILCCSCVPKTALKLAR | 5.8 ± 0.31 h | 5.98 ± 1.1 h | 6.18 ± 1.1 h | 5.39 ± 0.28 h | 2.97 ± 0.61 h | 10.1 ± 0.74 h | 5.69 ± 0.15 h | 10.54 ± 0.032 h | 5.71 ± 0.41 h | 6.03 ± 0.76 h | 5.9 ± 0.56 h | 10.2 ± 1.8 h
MNTIFSARIMKRLALTTALCTAFISAAHADDLNIKTMIPGVPQIDAESYILIDYNSGKVLAEQNADVRRDPASLTKMMTSYVIGQAMKAGKFKETDLVTIGNDAWATGNPVFKGSSLMFLKPGMQVPVSQLIRGINLQSGNDACVAMADFAAGSQDAFVGLMNSYVNALGLKNTHFQTVHGLDADGQYSSARDMALIGQALIRDVPNEYSIYKEKEFTFNGIRQLNRNGLLWDNSLNVDGIKTGHTDKAGYNLVASATEGQMRLISAVMGGRTFKGREAESKKLLTWGFRFFETVNPLKVGKEFASEPVWFGDSDRASLGVDKDVYLTIPRGRMKDLKASYVLNSSELHAPLQKNQVVGTINFQLDGKTIEQRPLVVLQEIPEGNFFGKIIDYIKLMFHHWFG [P0AEB2] | 6.19 ± 0.7 h | 6.72 ± 0.74 h | 6.22 ± 0.15 h | 6.03 ± 0.14 h | 3.24 ± 0.07 h | 12 ± 2.8 h | 6.23 ± 0.14 h | 14.5 ± 2 h | 6.1 ± 0.093 h | 6.05 ± 0.17 h | 6.61 ± 0.36 h | 13.2 ± 0.43 h
